Measured values from paper PMC3063151 (The Journal of neuroscience : the official journal of the …, 2011).

B1: GluN1-NTD-Y109C, purified (gel filtration and negative stain EM) (domain or fragment)
chain: not shown
B2: GluN1-NTD (crystallised; from GluN1-NTD-8His) (domain or fragment)
chain: not shown
modifications: N-linked N-acetyl glucosamine at N61, N203, N239, N276 and N300 (EndoH treated)

Legend:
SEC = molecular target: the molecule itself; test: SEC
crystal structure = molecular target: the molecule itself; test: crystal structure

Row | Protein | stoichiometry N (SEC) | binding result (crystal structure)
1 | B1 | 2 | 
2 | B2 |  | binds
